The supplement of paper PMC7125110
± gives the standard error. Fewer inactive variants are shown than the library holds.

B1: glmS ribozyme (parent)
chain: AUAAAAGCGCCAGAACUACAGAAAUGUAGUUGACGAGGAGGAGGUUUAUCGAAUUUUCGGCGGAUGCCUCCAAA

Key:
Details in all cases: with glucosamine-6-phosphate
glucosamine-6-phosphate [1] = variants of: B1; assay: self-cleavage kobs at 640 uM GlcN6P; higher = faster cleavage; RNA array
Method in brief: (§1)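 Barcoded ribozyme variants were transcribed in situ on sequenced MiSeq chips by E. coli RNA polymerase. At 37 °C, a hybridised Cy3 probe tracked them while glucosamine-6-phosphate (40 μM to 10 mM) in HEPES/KCl/Mg(OAc)2 buffer flowed in and tiles were imaged over ~14 h. Per-tile medians of signals normalised to baseline and to non-cleaving reference variants were fit to one- or two-exponential decays, giving kobs. kcat and KM came from weighted Michaelis–Menten fits across concentrations.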

glucosamine-6-phosphate [2] = variants of: B1; assay: self-cleavage kobs at 2500 uM GlcN6P; higher = faster cleavage; RNA array
Method in brief: as §1

glucosamine-6-phosphate [3] = variants of: B1; assay: self-cleavage kobs at 160 uM GlcN6P; higher = faster cleavage; RNA array
Method in brief: as §1

glucosamine-6-phosphate [4] = variants of: B1; assay: self-cleavage kobs at 10000 uM GlcN6P; higher = faster cleavage; RNA array
Method in brief: as §1

| Variant | self-cleavage kobs at 640 uM GlcN6P (glucosamine-6-phosphate [1]) | self-cleavage kobs at 2500 uM GlcN6P (glucosamine-6-phosphate [2]) | self-cleavage kobs at 160 uM GlcN6P (glucosamine-6-phosphate [3]) | self-cleavage kobs at 10000 uM GlcN6P (glucosamine-6-phosphate [4]) |
| --- | --- | --- | --- | --- |
| C8G A33C U45C U56C G59C | < 1e-05 s⁻¹ | < 1e-05 s⁻¹ | – | – |
| U49A A52U | < 1e-05 s⁻¹ | < 1e-05 s⁻¹ | < 1e-05 s⁻¹ | < 1e-05 s⁻¹ |
| A6U C34A G44U C67U | < 1e-05 s⁻¹ | < 1e-05 s⁻¹ | – | – |
| A6G A12U U56A C71U | 8.01e-05 ± 2.1e-05 s⁻¹ | 9.57e-05 ± 2.8e-05 s⁻¹ | – | – |
| A52C C58A | < 1e-05 s⁻¹ | – | < 1e-05 s⁻¹ | < 1e-05 s⁻¹ |
| G7C G9U G62C | < 1e-05 s⁻¹ | – | – | – |
| C50A U57G U65C C70G | 0.000128 ± 3.7e-05 s⁻¹ | 0.000108 ± 3.5e-05 s⁻¹ | 8.04e-05 ± 2.6e-05 s⁻¹ | 3.25e-05 ± 1.6e-05 s⁻¹ |
| A6U G7A G59A | < 1e-05 s⁻¹ | – | – | – |
| G7A A39C | < 1e-05 s⁻¹ | < 1e-05 s⁻¹ | – | – |
| C8G G9U A52U | < 1e-05 s⁻¹ | < 1e-05 s⁻¹ | – | – |
| C8A G35C G66U A72G | < 1e-05 s⁻¹ | – | – | – |
| G7U C10U C16A U30G A48C | < 1e-05 s⁻¹ | – | – | – |
| C50G C67G | 5e-05 ± 7.7e-06 s⁻¹ | – | 7.32e-05 ± 1.3e-05 s⁻¹ | – |
| A6C A15U G29A A53G | < 1e-05 s⁻¹ | – | – | – |
| C8G C10U G38A U65G C68G | 4.45e-05 ± 1.9e-05 s⁻¹ | – | – | – |
| A48G G62C | – | – | < 1e-05 s⁻¹ | < 1e-05 s⁻¹ |
| A6U G38C C61U | < 1e-05 s⁻¹ | – | – | – |
| A6C G59C G60U | < 1e-05 s⁻¹ | < 1e-05 s⁻¹ | – | – |
| G7C A42U A53U C67G | < 1e-05 s⁻¹ | – | – | – |
| A6G G63U A64C C67U U69G | < 1e-05 s⁻¹ | < 1e-05 s⁻¹ | – | – |
| A6G A15U G32C U57G G59U | < 1e-05 s⁻¹ | – | – | – |
| U55G G63C | – | < 1e-05 s⁻¹ | < 1e-05 s⁻¹ | – |

| Variant | self-cleavage kobs at 640 uM GlcN6P (glucosamine-6-phosphate [1]) | self-cleavage kobs at 2500 uM GlcN6P (glucosamine-6-phosphate [2]) | self-cleavage kobs at 160 uM GlcN6P (glucosamine-6-phosphate [3]) | self-cleavage kobs at 10000 uM GlcN6P (glucosamine-6-phosphate [4]) |
| --- | --- | --- | --- | --- |
| C8G A12C C71A | < 1e-05 s⁻¹ | < 1e-05 s⁻¹ | – | – |
| G7U C71A | < 1e-05 s⁻¹ | – | – | < 1e-05 s⁻¹ |
| C58G U69C | 0.000102 ± 3.1e-05 s⁻¹ | 0.00011 ± 3.2e-05 s⁻¹ | 6.56e-05 ± 2e-05 s⁻¹ | – |
| A6G G9U | < 1e-05 s⁻¹ | < 1e-05 s⁻¹ | – | < 1e-05 s⁻¹ |
| A6G G51U U56A C71U | < 1e-05 s⁻¹ | – | – | < 1e-05 s⁻¹ |
| A6U C16U U47A | 6.84e-05 ± 2.1e-05 s⁻¹ | 0.000103 ± 3.5e-05 s⁻¹ | – | – |
| A6C U54G C70U | 6.45e-05 ± 2.2e-05 s⁻¹ | – | – | – |
| A6C G29C A36U G43U G66A | < 1e-05 s⁻¹ | – | – | – |
| C8A C10A U30A C61G | < 1e-05 s⁻¹ | < 1e-05 s⁻¹ | – | – |
| A48U U49C A64U C70U | < 1e-05 s⁻¹ | – | < 1e-05 s⁻¹ | – |
| C8G A36G A42U C67A | < 1e-05 s⁻¹ | < 1e-05 s⁻¹ | – | – |
| U55C G59C | < 1e-05 s⁻¹ | – | < 1e-05 s⁻¹ | – |
| G7C A12C G32A C50A G60U | < 1e-05 s⁻¹ | – | – | – |
| A6C C10A G32A G51A A52G A53G G59C G63U C68A | 0.000154 ± 5.6e-05 s⁻¹ | – | – | – |
| G7A G29U C34U | < 1e-05 s⁻¹ | – | – | – |
| A6C G38U G40A A48G A52U G63C | < 1e-05 s⁻¹ | < 1e-05 s⁻¹ | – | – |
| G59C G63U C71A | – | – | < 1e-05 s⁻¹ | – |
| C8A C19A | < 1e-05 s⁻¹ | < 1e-05 s⁻¹ | – | – |
| A6G A12C U55G | 7.46e-05 ± 1.3e-05 s⁻¹ | 0.000177 ± 3.7e-05 s⁻¹ | – | – |
| A6C G9C G41U | < 1e-05 s⁻¹ | < 1e-05 s⁻¹ | – | – |
| G7U C68G | 0.000534 ± 0.00015 s⁻¹ | – | – | – |
| U55G U56C | 0.000938 ± 0.00021 s⁻¹ | 0.00118 ± 0.00028 s⁻¹ | 0.000157 ± 3.8e-05 s⁻¹ | 0.00614 ± 0.0016 s⁻¹ |

| Variant | self-cleavage kobs at 640 uM GlcN6P (glucosamine-6-phosphate [1]) | self-cleavage kobs at 2500 uM GlcN6P (glucosamine-6-phosphate [2]) | self-cleavage kobs at 160 uM GlcN6P (glucosamine-6-phosphate [3]) | self-cleavage kobs at 10000 uM GlcN6P (glucosamine-6-phosphate [4]) |
| --- | --- | --- | --- | --- |
| G7U A12C U49C | < 1e-05 s⁻¹ | – | – | – |
| G7C G29C C67G | < 1e-05 s⁻¹ | < 1e-05 s⁻¹ | – | – |
| G7C G43U A64U | < 1e-05 s⁻¹ | – | – | – |
| G7C G26U G29U U57C A64U U65C | < 1e-05 s⁻¹ | – | – | – |
| C8A C11U G37C G62A | < 1e-05 s⁻¹ | < 1e-05 s⁻¹ | – | – |
| A6C G29U A33U | < 1e-05 s⁻¹ | – | – | – |
| C8A G40A C68U | < 1e-05 s⁻¹ | – | – | < 1e-05 s⁻¹ |
| A6U G13U G29U C70G | 4.98e-05 ± 2.3e-05 s⁻¹ | – | – | – |
| A6G C16G U57C | < 1e-05 s⁻¹ | – | – | – |
| U54G A64G C68A | 6.86e-05 ± 1.5e-05 s⁻¹ | 0.000107 ± 2.7e-05 s⁻¹ | 5.71e-05 ± 2.2e-05 s⁻¹ | – |
| C8G A64C C68G | < 1e-05 s⁻¹ | < 1e-05 s⁻¹ | – | – |
| A6G A48U C61U | < 1e-05 s⁻¹ | < 1e-05 s⁻¹ | – | – |
| G7U C11U A12C A15C A48G | < 1e-05 s⁻¹ | – | – | – |
| G7U U30C U45A C71G | < 1e-05 s⁻¹ | – | – | – |
| G7A C10U C16U U65C | < 1e-05 s⁻¹ | – | – | – |
| G7U G38C U45C C70G | < 1e-05 s⁻¹ | – | – | – |
| A6C U55G U65G C67U | < 1e-05 s⁻¹ | – | – | – |
| C50U C61A | 2.67e-05 ± 1.1e-05 s⁻¹ | 3.11e-05 ± 1e-05 s⁻¹ | 9.85e-05 ± 4.8e-05 s⁻¹ | – |
| A6G G41A C50A G62U | < 1e-05 s⁻¹ | – | – | – |
| A6U A15G A48U | < 1e-05 s⁻¹ | – | – | – |
| A6G A33G U47A | < 1e-05 s⁻¹ | – | – | – |
| U54G C68A | 6.59e-05 ± 2.9e-05 s⁻¹ | 0.000107 ± 2.7e-05 s⁻¹ | 6.58e-05 ± 2.7e-05 s⁻¹ | – |
